Each block holds one binder with its values, some of them ahead of it. *1 amine or outer side, *2 acyl side, *3 side chain or, on linkers, in order; H or OH if unused. Where no end group is shown, it is not given here. Side-chain parts run from the residue outwards. [ ]: non-standard residue; d: D form. The star is where a group is joined. C16 diacid = O=C(O)CCCCCCCCCCCCCCC(=O)*; γGlu = O=C(O)[C@H](CCC(=O)[*:2])N[*:1]; C14 diacid = O=C(O)CCCCCCCCCCCCC(=O)*; NMeI = CC[C@H](C)[C@H](NC)C(=O)O; Api = NC1(C(=O)O)CCNCC1; AEEA = NCCOCCOCC(=O)O; Aib = CC(C)(N)C(=O)O
Columns and labels:
CRF1R receptor = target: T1, CRF1R receptor (UniProt P34998 24-415, limits assumed); assay: cell-based or functional assay
T1 sequence (looked up): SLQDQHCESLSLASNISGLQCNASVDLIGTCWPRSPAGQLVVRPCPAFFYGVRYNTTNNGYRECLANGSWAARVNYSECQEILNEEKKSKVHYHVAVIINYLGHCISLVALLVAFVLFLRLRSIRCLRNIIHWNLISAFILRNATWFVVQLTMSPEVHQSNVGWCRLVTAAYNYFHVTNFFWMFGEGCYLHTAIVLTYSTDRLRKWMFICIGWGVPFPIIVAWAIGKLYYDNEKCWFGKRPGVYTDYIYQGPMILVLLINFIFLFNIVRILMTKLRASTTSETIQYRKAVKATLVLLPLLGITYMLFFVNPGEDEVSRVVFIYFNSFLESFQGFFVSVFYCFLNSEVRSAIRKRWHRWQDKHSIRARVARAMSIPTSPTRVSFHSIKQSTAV

[1] = target: human corticotropin-releasing factor 2a (CRF2a receptor) (human), Q13324; assay: cell-based or functional assay
Chain of human corticotropin-releasing factor 2a (CRF2a receptor) (human), Q13324 (Q13324 20-411): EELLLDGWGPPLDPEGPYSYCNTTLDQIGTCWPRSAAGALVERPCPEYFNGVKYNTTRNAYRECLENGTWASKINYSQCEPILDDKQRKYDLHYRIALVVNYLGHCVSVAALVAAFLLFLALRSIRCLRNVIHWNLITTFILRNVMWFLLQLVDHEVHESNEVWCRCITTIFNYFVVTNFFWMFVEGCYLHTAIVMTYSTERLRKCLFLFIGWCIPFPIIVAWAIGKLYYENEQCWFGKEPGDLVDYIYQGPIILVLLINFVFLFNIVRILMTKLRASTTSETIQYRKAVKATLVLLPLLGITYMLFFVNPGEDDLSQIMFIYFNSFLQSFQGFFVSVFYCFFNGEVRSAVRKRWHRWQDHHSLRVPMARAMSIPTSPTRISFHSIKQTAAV

- Emax (% I) (CRF1R receptor): 10%
- EC50 [nM] (cAMP) [1]: 0.86 nM
B1: SEQ ID NO 177 (peptide)
peptide: [NMeI]VLSLD[dV]PIKLK([γGlu-C14 diacid])KILLEQEKQK[Aib]QREQAETN[Aib]QILAQV-NH2
modifications: N-terminus assumed
SMILES: CC[C@H](C)[C@H](NC)C(=O)N[C@H](C(=O)N[C@@H](CC(C)C)C(=O)N[C@@H](CO)C(=O)N[C@@H](CC(C)C)C(=O)N[C@@H](CC(=O)O)C(=O)N[C@@H](C(=O)N1CCC[C@H]1C(=O)N[C@H](C(=O)N[C@@H](CCCCN)C(=O)N[C@@H](CC(C)C)C(=O)N[C@@H](CCCCNC(=O)CC[C@H](NC(=O)CCCCCCCCCCCCC(=O)O)C(=O)O)C(=O)N[C@@H](CCCCN)C(=O)N[C@H](C(=O)N[C@@H](CC(C)C)C(=O)N[C@@H](CC(C)C)C(=O)N[C@@H](CCC(=O)O)C(=O)N[C@@H](CCC(N)=O)C(=O)N[C@@H](CCC(=O)O)C(=O)N[C@@H](CCCCN)C(=O)N[C@@H](CCC(N)=O)C(=O)N[C@@H](CCCCN)C(=O)NC(C)(C)C(=O)N[C@@H](CCC(N)=O)C(=O)N[C@@H](CCCNC(=N)N)C(=O)N[C@@H](CCC(=O)O)C(=O)N[C@@H](CCC(N)=O)C(=O)N[C@@H](C)C(=O)N[C@@H](CCC(=O)O)C(=O)N[C@H](C(=O)N[C@@H](CC(N)=O)C(=O)NC(C)(C)C(=O)N[C@@H](CCC(N)=O)C(=O)N[C@H](C(=O)N[C@@H](CC(C)C)C(=O)N[C@@H](C)C(=O)N[C@@H](CCC(N)=O)C(=O)N[C@H](C(N)=O)C(C)C)[C@@H](C)CC)[C@@H](C)O)[C@@H](C)CC)[C@@H](C)CC)C(C)C)C(C)C

- Emax (% I) (CRF1R receptor): -1%
- EC50 [nM] (cAMP) [1]: 28.1 nM
B2: SEQ ID NO 173 (peptide)
peptide: Ac-IVLSLD[dV]PIKLK([AEEA-AEEA-γGlu-C14 diacid])KILLEQEKQK[Aib]QREQAETN[Api]QILAQV-NH2
SMILES: CC[C@H](C)[C@H](NC(C)=O)C(=O)N[C@H](C(=O)N[C@@H](CC(C)C)C(=O)N[C@@H](CO)C(=O)N[C@@H](CC(C)C)C(=O)N[C@@H](CC(=O)O)C(=O)N[C@@H](C(=O)N1CCC[C@H]1C(=O)N[C@H](C(=O)N[C@@H](CCCCN)C(=O)N[C@@H](CC(C)C)C(=O)N[C@@H](CCCCNC(=O)COCCOCCNC(=O)COCCOCCNC(=O)CC[C@H](NC(=O)CCCCCCCCCCCCC(=O)O)C(=O)O)C(=O)N[C@@H](CCCCN)C(=O)N[C@H](C(=O)N[C@@H](CC(C)C)C(=O)N[C@@H](CC(C)C)C(=O)N[C@@H](CCC(=O)O)C(=O)N[C@@H](CCC(N)=O)C(=O)N[C@@H](CCC(=O)O)C(=O)N[C@@H](CCCCN)C(=O)N[C@@H](CCC(N)=O)C(=O)N[C@@H](CCCCN)C(=O)NC(C)(C)C(=O)N[C@@H](CCC(N)=O)C(=O)N[C@@H](CCCNC(=N)N)C(=O)N[C@@H](CCC(=O)O)C(=O)N[C@@H](CCC(N)=O)C(=O)N[C@@H](C)C(=O)N[C@@H](CCC(=O)O)C(=O)N[C@H](C(=O)N[C@@H](CC(N)=O)C(=O)NC1(C(=O)N[C@@H](CCC(N)=O)C(=O)N[C@H](C(=O)N[C@@H](CC(C)C)C(=O)N[C@@H](C)C(=O)N[C@@H](CCC(N)=O)C(=O)N[C@H](C(N)=O)C(C)C)[C@@H](C)CC)CCNCC1)[C@@H](C)O)[C@@H](C)CC)[C@@H](C)CC)C(C)C)C(C)C

- Emax (% I) (CRF1R receptor): -6%
- EC50 [nM] (cAMP) [1]: 16.1 nM
B3: SEQ ID NO 172 (peptide)
peptide: Ac-IVLSLD[dV]PIKLK([AEEA-AEEA-γGlu-C14 diacid])KILLEQEKQKKQREQAETN[Api]QILAQV-NH2
SMILES: CC[C@H](C)[C@H](NC(C)=O)C(=O)N[C@H](C(=O)N[C@@H](CC(C)C)C(=O)N[C@@H](CO)C(=O)N[C@@H](CC(C)C)C(=O)N[C@@H](CC(=O)O)C(=O)N[C@@H](C(=O)N1CCC[C@H]1C(=O)N[C@H](C(=O)N[C@@H](CCCCN)C(=O)N[C@@H](CC(C)C)C(=O)N[C@@H](CCCCNC(=O)COCCOCCNC(=O)COCCOCCNC(=O)CC[C@H](NC(=O)CCCCCCCCCCCCC(=O)O)C(=O)O)C(=O)N[C@@H](CCCCN)C(=O)N[C@H](C(=O)N[C@@H](CC(C)C)C(=O)N[C@@H](CC(C)C)C(=O)N[C@@H](CCC(=O)O)C(=O)N[C@@H](CCC(N)=O)C(=O)N[C@@H](CCC(=O)O)C(=O)N[C@@H](CCCCN)C(=O)N[C@@H](CCC(N)=O)C(=O)N[C@@H](CCCCN)C(=O)N[C@@H](CCCCN)C(=O)N[C@@H](CCC(N)=O)C(=O)N[C@@H](CCCNC(=N)N)C(=O)N[C@@H](CCC(=O)O)C(=O)N[C@@H](CCC(N)=O)C(=O)N[C@@H](C)C(=O)N[C@@H](CCC(=O)O)C(=O)N[C@H](C(=O)N[C@@H](CC(N)=O)C(=O)NC1(C(=O)N[C@@H](CCC(N)=O)C(=O)N[C@H](C(=O)N[C@@H](CC(C)C)C(=O)N[C@@H](C)C(=O)N[C@@H](CCC(N)=O)C(=O)N[C@H](C(N)=O)C(C)C)[C@@H](C)CC)CCNCC1)[C@@H](C)O)[C@@H](C)CC)[C@@H](C)CC)C(C)C)C(C)C

- EC50 (CRF1R receptor): > 250 nM
- Emax (% I) (CRF1R receptor): 27%
- EC50 [nM] (cAMP) [1]: 0.16 nM
Binder: Ac-VLSLD[dV]PIKLK([γGlu-C16 diacid])QILLKQERQKKQREQAEKNKQILEQV-NH2 [SEQ ID NO 3]

- EC50 (CRF1R receptor): > 250 nM
- Emax (% I) (CRF1R receptor): 11%
- EC50 [nM] (cAMP) [1]: 16.2 nM
Binder: Ac-IVLSLD[dV]PIKLK([AEEA-γGlu-γGlu-C14 diacid])KILLEQEKQKKQREQAETN[Aib]QILAQV-NH2 [SEQ ID NO 174]

- Emax (% I) (CRF1R receptor): 8%
- EC50 [nM] (cAMP) [1]: 0.99 nM
B4: SEQ ID NO 176 (peptide)
peptide: [NMeI]VLSLD[dV]PIKLK([γGlu-C14 diacid])KILLEQEKQKAQREQAETN[Aib]QILAQV-NH2
modifications: N-terminus assumed
SMILES: CC[C@H](C)[C@H](NC)C(=O)N[C@H](C(=O)N[C@@H](CC(C)C)C(=O)N[C@@H](CO)C(=O)N[C@@H](CC(C)C)C(=O)N[C@@H](CC(=O)O)C(=O)N[C@@H](C(=O)N1CCC[C@H]1C(=O)N[C@H](C(=O)N[C@@H](CCCCN)C(=O)N[C@@H](CC(C)C)C(=O)N[C@@H](CCCCNC(=O)CC[C@H](NC(=O)CCCCCCCCCCCCC(=O)O)C(=O)O)C(=O)N[C@@H](CCCCN)C(=O)N[C@H](C(=O)N[C@@H](CC(C)C)C(=O)N[C@@H](CC(C)C)C(=O)N[C@@H](CCC(=O)O)C(=O)N[C@@H](CCC(N)=O)C(=O)N[C@@H](CCC(=O)O)C(=O)N[C@@H](CCCCN)C(=O)N[C@@H](CCC(N)=O)C(=O)N[C@@H](CCCCN)C(=O)N[C@@H](C)C(=O)N[C@@H](CCC(N)=O)C(=O)N[C@@H](CCCNC(=N)N)C(=O)N[C@@H](CCC(=O)O)C(=O)N[C@@H](CCC(N)=O)C(=O)N[C@@H](C)C(=O)N[C@@H](CCC(=O)O)C(=O)N[C@H](C(=O)N[C@@H](CC(N)=O)C(=O)NC(C)(C)C(=O)N[C@@H](CCC(N)=O)C(=O)N[C@H](C(=O)N[C@@H](CC(C)C)C(=O)N[C@@H](C)C(=O)N[C@@H](CCC(N)=O)C(=O)N[C@H](C(N)=O)C(C)C)[C@@H](C)CC)[C@@H](C)O)[C@@H](C)CC)[C@@H](C)CC)C(C)C)C(C)C

- Emax (% I) (CRF1R receptor): 5%
- EC50 [nM] (cAMP) [1]: 18.9 nM
B5: SEQ ID NO 175 (peptide)
peptide: Ac-IVLSLD[dV]PIKLK([AEEA-AEEA-γGlu-γGlu-C14 diacid])KILLEQEKQKKQREQAETN[Api]QILAQV-NH2
SMILES: CC[C@H](C)[C@H](NC(C)=O)C(=O)N[C@H](C(=O)N[C@@H](CC(C)C)C(=O)N[C@@H](CO)C(=O)N[C@@H](CC(C)C)C(=O)N[C@@H](CC(=O)O)C(=O)N[C@@H](C(=O)N1CCC[C@H]1C(=O)N[C@H](C(=O)N[C@@H](CCCCN)C(=O)N[C@@H](CC(C)C)C(=O)N[C@@H](CCCCNC(=O)COCCOCCNC(=O)COCCOCCNC(=O)CC[C@H](NC(=O)CC[C@H](NC(=O)CCCCCCCCCCCCC(=O)O)C(=O)O)C(=O)O)C(=O)N[C@@H](CCCCN)C(=O)N[C@H](C(=O)N[C@@H](CC(C)C)C(=O)N[C@@H](CC(C)C)C(=O)N[C@@H](CCC(=O)O)C(=O)N[C@@H](CCC(N)=O)C(=O)N[C@@H](CCC(=O)O)C(=O)N[C@@H](CCCCN)C(=O)N[C@@H](CCC(N)=O)C(=O)N[C@@H](CCCCN)C(=O)N[C@@H](CCCCN)C(=O)N[C@@H](CCC(N)=O)C(=O)N[C@@H](CCCNC(=N)N)C(=O)N[C@@H](CCC(=O)O)C(=O)N[C@@H](CCC(N)=O)C(=O)N[C@@H](C)C(=O)N[C@@H](CCC(=O)O)C(=O)N[C@H](C(=O)N[C@@H](CC(N)=O)C(=O)NC1(C(=O)N[C@@H](CCC(N)=O)C(=O)N[C@H](C(=O)N[C@@H](CC(C)C)C(=O)N[C@@H](C)C(=O)N[C@@H](CCC(N)=O)C(=O)N[C@H](C(N)=O)C(C)C)[C@@H](C)CC)CCNCC1)[C@@H](C)O)[C@@H](C)CC)[C@@H](C)CC)C(C)C)C(C)C

Reference: patent US20260001928A1 (CORTERIA PHARMACEUTICALS, priority 2022, published 2026)
